Reference: patent US5534409, “Cytokine regulated transcription factor” (Ciba-Geigy Corporation)

Molecular target: T1, MGF (mammary gland factor, STAT5), native from lactating mammary gland (Ovis aries, UniProt P42231 SEQ:1-794)
T1 chain: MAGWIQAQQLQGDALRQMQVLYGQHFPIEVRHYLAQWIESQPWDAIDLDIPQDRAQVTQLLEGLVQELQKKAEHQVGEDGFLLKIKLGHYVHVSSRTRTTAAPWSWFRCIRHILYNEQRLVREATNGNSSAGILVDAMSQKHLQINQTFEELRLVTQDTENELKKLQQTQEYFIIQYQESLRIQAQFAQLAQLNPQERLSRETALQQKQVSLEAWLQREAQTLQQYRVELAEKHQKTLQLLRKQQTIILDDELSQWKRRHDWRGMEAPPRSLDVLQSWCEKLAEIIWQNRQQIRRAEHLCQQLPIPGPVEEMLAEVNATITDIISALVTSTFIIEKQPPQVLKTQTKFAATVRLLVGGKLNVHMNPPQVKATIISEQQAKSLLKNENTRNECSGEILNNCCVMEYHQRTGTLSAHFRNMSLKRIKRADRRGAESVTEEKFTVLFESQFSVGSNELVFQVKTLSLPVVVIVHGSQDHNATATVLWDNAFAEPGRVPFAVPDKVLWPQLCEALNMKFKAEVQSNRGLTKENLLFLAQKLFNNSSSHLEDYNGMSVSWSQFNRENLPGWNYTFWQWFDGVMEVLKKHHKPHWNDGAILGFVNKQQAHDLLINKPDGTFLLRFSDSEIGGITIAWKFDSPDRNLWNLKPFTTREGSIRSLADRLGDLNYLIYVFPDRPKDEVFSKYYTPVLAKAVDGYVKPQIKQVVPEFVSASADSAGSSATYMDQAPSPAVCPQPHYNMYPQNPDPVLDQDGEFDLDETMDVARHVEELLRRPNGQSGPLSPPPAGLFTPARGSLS
Test: EMSA; binds more efficiently than rat site; also used for DNA affinity column, eluted at 600 mM NaCl; binding abolished by tyrosine phosphatase PTP1B, not by PP1C or
Settings: tags: none; 84 and 92 kDa bands, tyrosine phosphorylated

B1: bovine beta-casein MGF site (dsDNA)
DNA 1: AGATTTCTAGGAATTCAATCC
DNA 2: GGATTGAATTCCTAGAAATCT
Does B1 bind?
Result: binds
